Experimental data: patent US20190031761A1

How the values were obtained:
[1] = target: EGFRvIII recombinant protein (rhEGFRvIII protein) used in ELISA (human) (UniProt P00533); assay: concentration-dependent ELISA in triplicate, Prism nonlinear regression (apparent affinity)
[2] = target: T1, EGFRvIII-specific peptide (…); assay: as above
T1 sequence (peptide): LEEKKGNYVVTDHC

Kd [1]: 2.35 nM
Kd [2]: 0.272 nM
B1: B4A3 scFv protein (anti-EGFRvIII scFv) (scFv, part only; not given: scFv linker, domain order, tags, V domains shown, not shown: another chain or arm of the molecule; small tags and cut ends)
VH: EVQLLESGGGLVQPGGSLRLSCAASGFTFSNYYMSWVRQAPGKGLEWVSGTSPNGGSKYYADSVKGRFTISRDNSKNTLYLQMNSLRAEDTAVYYCAKGRRKLRATRFDYWGQGTLVTVSS
VL: QSVLTQPPSASGTPGQRVTISCTGSSSNIGNNYVSWYQQHPGTAPKLLIYSDSNRPSGVPDRFSGSKSGTSASLAISGLRSEDEADYYCATWDASLSAYVFGGGTKLTVL
